The record followed here is the supplement of paper PMC9170038.

The data set relates to MS2 coat protein. The data set can be described thus: apparent KD of MS2 coat protein; designed switch direction (-1 OFF switch, 1 ON switch): 1; higher = weaker reporter binding. The procedure, abridged:
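For each design, the apparent KD is the median over clusters of curves fitted to normalised cluster fluorescence. Clusters held RNA switches with common flanks, transcribed on Illumina chips by stalled E. coli RNA polymerase. These were titrated with SNAP-549-labelled MS2 coat protein, doubling from 0.7 or 1.5 nM to 3 µM, without input, with 200 uM small-molecule ligand, or with an oligonucleotide input.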

[1] abbreviates: Eterna round: R95, input ligand: FMN 200 uM.
[2] abbreviates: Eterna round: R95, input ligand: microRNA oligo, concentration not stated.
[3] abbreviates: Eterna round: R95, input ligand: none.
[4] abbreviates: input ligand: microRNA oligo, concentration not stated.

Take “GGUUUAGUCGAUUGCCGUUGCACUCGAAAACAUGAGGAUCACCCAUGUUUGGGACAAGCUUUGCUCCUCGUCUUUCC [Sous] (puzzle: Sensor for hsa-mir-208a)”: the “apparent KD of MS2 coat protein” value under setting [1] is 240 nM, the “apparent KD of MS2 coat protein” value under setting [2] turned out to be 67.1 nM and the “apparent KD of MS2 coat protein” value under setting [3] amounted to 453 nM.
For “UGGUACAUGGGAGGAUAUGGAGUGAUGACAUGAGGAUCACCCAUGUUAAAUAUGCCGAGAGGCAACUAGAAGGCCCAUGUACCU [JL SSNG1 3.98] (Eterna round: R96, puzzle: Same State NG 2)”, the “apparent KD of MS2 coat protein” value reads like this: (input ligand: FMN 200 uM) 22.3 nM; under setting [4], 298 nM; (input ligand: none) 418 nM.
For “GGUAGGUUACUACCAAUACAUGAGGAUCACCCAUGUUGUCAUGAGGAUAUGGUACCUAUUUGGUACCAGAAGGCAUGUAUAAUU [Fiskers NG3ss - 20] (Eterna round: R96, puzzle: Same State NG 3)”, in that order: 49.6 nM, 59.5 nM and 62 nM.
For “AAGUAACAUGAGGAUCACCCAUGUGAGGUGAGCGUAGGAUAUCGAGGAGGAAGGGUGGAGCGAGAAGGACGAGAGG [JR_SS1_Sub099] (Eterna round: R96, puzzle: Same State 1)”, in that order: 544 nM, 281 nM and 386 nM.
On the same counts, the results for “CCGCCGGGAACCCGGCGGAAACAUGAGGAUCACCCAUGUACACAGGAUAUCGUGACAUUAACAAACGAGAAGGGUGGCCGAGAC [Atre] (Eterna round: R96, puzzle: Same State NG 3)” are 345 nM, 91.6 nM and 137 nM.
In the case of “AGUCCAGCCUGAGCUGGACAAAAGCAUGUACAUGAGGAUCACCCAUGUCAUGUAUAAGCUUUUUGCUCGUCUUAAAA [Zipper 46 - 10] (puzzle: Sensor for hsa-mir-208a)”, the “apparent KD of MS2 coat protein” value is, setting by setting: under setting [1], 18.9 nM; under setting [2], 9.63 nM; under setting [3], 20.1 nM.
For “UGUCCAGCCUGAGCUGGACAAAAGCAUGUACAUGAGGAUCACCCAUGUUCAUGUACAAGCUUUUUGCUCGUCUUAAC [salish99_208a_r3_033] (puzzle: Sensor for hsa-mir-208a)”, the “apparent KD of MS2 coat protein” value came to 354 nM under setting [1], 14.1 nM under setting [2] and 465 nM under setting [3].
With “GCUCGAAUCAAAACCAACAUGAGGAUCACCCAUGUAUGUUGGUAGGAUAUCGUUUGCUUUGCAAACGAGAAGGACCAAACGAGC [SameState NG3 #2] (Eterna round: R96, puzzle: Same State NG 3)”, the “apparent KD of MS2 coat protein” value was 26.8 nM (input ligand: FMN 200 uM), 67 nM under setting [4] and 94.2 nM (input ligand: none).
“UUCUCACAUGAGGAUCACCCAUGUGAGCCUCUGUGAGGAUAUCCGACAUAAUUAAGUGAAGGAGAAGGUACACGAG [Malean] (puzzle: Same State 1)”: the “apparent KD of MS2 coat protein” value came out at 24.8 nM under setting [1], 30.2 nM under setting [2] and 19.5 nM under setting [3].
In the case of “GGAGCCAAGGCAGGAUAUUCAUACUAAUAACAUGAGGAUCACCCAUGUAAGGCCAGAAGGCCUUGGGAGAAGGGCCAUGGCUCG [Xeonanis - 13 mod3] (Eterna round: R96, puzzle: Same State NG 2)”, the “apparent KD of MS2 coat protein” value reads like this: (input ligand: FMN 200 uM) 22 nM; under setting [4], 57.1 nM; (input ligand: none) 86.7 nM.
On the same counts, the results for “GUAAUAAUGUAAGGAUAUACAUGAGGAUUUCUCGUAGAAGGUACAAGACAUGAGGAUCACCCAUGUGUCGCUCCGUAGAGCGUA [Mat - Same State NG 1 - JL mod - D15] (Eterna round: R96, puzzle: Same State NG 1)” are 297 nM, 168 nM and 448 nM.
Consider “GAUAGACAUGAGGAUCACCCAUGUGACAAAACCACAGGAUAUCAUGCAGGCGUAACUGCAUGAGAAGGGUGAGACU [Quanve] (puzzle: Same State 1)”, for which the “apparent KD of MS2 coat protein” value is, setting by setting: under setting [1], 61.1 nM; under setting [2], 20.6 nM; under setting [3], 35.8 nM.
Turning to “AAAAUGGGAUUUUACAUGAGGAUCACCCAUGUGGGUAUCACUGAGGAUAUGAGGAUCUUGAAAAAUCAGAAGGCAGAAUUUCAA [AK SSNG3-V2-21] (Eterna round: R96, puzzle: Same State NG 3)”, the “apparent KD of MS2 coat protein” value was found to be 410 nM (input ligand: FMN 200 uM), 288 nM under setting [4] and 329 nM (input ligand: none).
As for “AUAAAACAUGAGGAUCACCCAUGUCAACAAAGUCGAGGAUAUGGGCAAAUAAUAUAAGAACCAGAAGGCGAAUAAU [salish99_ss1_r3_022] (puzzle: Same State 1)”, the “apparent KD of MS2 coat protein” value turned out to be 36.6 nM under setting [1], 207 nM under setting [2] and 191 nM under setting [3].
For “UGGUAACAUGAGGAUCACCCAUGUCAAAUGAAUCUAGGAUAUGGGAAAGGAGAAGAGAAACCAGAAGGAGAGGUUG [Altered State 1-14 - Jieux - Same State 1] (puzzle: Same State 1)”, in that order: 179 nM, 63.1 nM and 107 nM.
Turning to “GAGUAGUUGAUAGGAUAUUGAUUGUUGUAGGAUCAAGAAGGAUCUAACAUGAGGAUCACCCAUGUAGGACUAUUCCUGUGUAUC [Parity 85 - Jieux - Same State NG 1] (Eterna round: R96, puzzle: Same State NG 1)”, the “apparent KD of MS2 coat protein” value runs as follows: (input ligand: FMN 200 uM) 18.6 nM; under setting [4], 13.7 nM; (input ligand: none) 21.4 nM.
As for “CCGGUGAUAGGGCAGGAUAUGACUGUCGUCACAUGAGGAUCACCCAUGUCCCGGCAAUGCCACCGUUAGAAGGGCCCUAUCCCGA [Teuszaesti] (puzzle: Same State 2)”, the “apparent KD of MS2 coat protein” value by setting is: under setting [1], 14.8 nM; under setting [2], 12.1 nM; under setting [3], 15 nM.
For the sequence “GGAGCCAAGGCAGGAUAUUCAUAUUAAUAACACAUGAGGAUCACCCAUGUGGCCAGAAGGCCAUGGGAGAAGGGCCAUGGCUCG [Xeonanis - 13 mod10] (Eterna round: R96, puzzle: Same State NG 2)”, the “apparent KD of MS2 coat protein” value is, setting by setting: (input ligand: FMN 200 uM) 86.3 nM; under setting [4], 195 nM; (input ligand: none) 469 nM.
As for “ACAUGAGAGUGAGGAUAUGCUGUACCUACAUGUGACAUGAGGAUCACCCAUGUGGUAAGUAUGACGCAGAAGGCACAGAUAUGU [Equivalance 78 - Jieux - Same State NG 2] (Eterna round: R96, puzzle: Same State NG 2)”, the “apparent KD of MS2 coat protein” value (input ligand: FMN 200 uM) is 13.3 nM, the “apparent KD of MS2 coat protein” value under setting [4] worked out at 78.9 nM and the “apparent KD of MS2 coat protein” value (input ligand: none) worked out at 103 nM.
As to “GGAGCUGGCACUGAGGAUAUUCAUAUUUAAACAUGAGGAUCACCCAUGUAGGCCAGAAGGCCUUGGGAGAAGGCAGGUCGGCUCG [salish99_ss2_r3_085] (puzzle: Same State 2)”, the “apparent KD of MS2 coat protein” value by setting is: under setting [1], 24.6 nM; under setting [2], 254 nM; under setting [3], 354 nM.
As to “GAGUGGUGGAGAGGAUAUACAUUGUUAUUCACUGUAGAAGGUUCUAACAUGAGGAUCACCCAUGUAGGACUAUUCCUGAGUUUU [Parity 56 - Jieux - Same State NG 1] (Eterna round: R96, puzzle: Same State NG 1)”, the “apparent KD of MS2 coat protein” value under setting [4] was 8.92 nM.
For “AUGAUUUAUGCAGGAUAUGAUUAACAUGAGGAUCACCCAUGUGGUGUUGUGAGUAAGGAGAGUGAUCAGAAGGGCAUUUUUUUU [JMF's solution 71] (Eterna round: R96, puzzle: Same State NG 2)”, the “apparent KD of MS2 coat protein” value was found to be 1170 nM (input ligand: FMN 200 uM), 402 nM under setting [4] and 506 nM (input ligand: none).
Regarding “AGGAAGGAGACUGAGGAUAUCGUUGAAAAGACAUGAGGAUCACCCAUGUGUAUAGGAUUGGAGAACGAGAAGGCAGAGGAGUGGA [JR_SS2_Sub044] (puzzle: Same State 2)”, the “apparent KD of MS2 coat protein” value under setting [1] was found to be 29.2 nM, the “apparent KD of MS2 coat protein” value under setting [2] amounted to 33.3 nM and the “apparent KD of MS2 coat protein” value under setting [3] stood at 37.5 nM.
As for “GUGGUCAAUCAAGGAUAUGGAGCCUUAUUGGCUCCAGAAGGUGGGACAUGAGGAUCACCCAUGUGGCAGUGGUAAAAUGACCAC [Fiskers NG1ss - 37] (Eterna round: R96, puzzle: Same State NG 1)”, the “apparent KD of MS2 coat protein” value (input ligand: FMN 200 uM) worked out at 35.6 nM, the “apparent KD of MS2 coat protein” value under setting [4] is 56.8 nM and the “apparent KD of MS2 coat protein” value (input ligand: none) turned out to be 63.4 nM.
For “GGAGCCAAGGCAGGAUAUUCAUAUUAAAACAUGAGGAUCACCCAUGUAAAGGCCAGAAGGCCGUGGGAGAAGGGCCAUGGCUCG [Xeonanis - 13 mod15] (Eterna round: R96, puzzle: Same State NG 2)”, in that order: 38.5 nM, 51.7 nM and 116 nM.
On the same counts, the results for “AUAGUUGCCGAAGGAUAUGAUGAGGAUCACCCAUCAGAAGGUUGGCUAUUGGGUGGACAUGAGGAUCACCCAUGUCCUUUGGUU (Eterna round: R96, puzzle: Same State NG 1)” are 58.2 nM, 68.9 nM and 113 nM.
Turning to “GCCGCACAUGAGGAUCACCCAUGUAAUUACAUGGGAGGAUAUCAGUGCUCGAAAGAGCACUGAGAAGGCCUAAGGC [SS1 - Omei A] (puzzle: Same State 1)”, the “apparent KD of MS2 coat protein” value under setting [1] came out at 419 nM, the “apparent KD of MS2 coat protein” value under setting [2] was found to be 32.4 nM and the “apparent KD of MS2 coat protein” value under setting [3] came out at 20.8 nM.
